The target in experiment [1] is T1, Bdf1 bromodomain 2 (GST-tagged, WT) (Saccharomyces cerevisiae (strain ATCC …, UniProt P35817)).
T1 chain: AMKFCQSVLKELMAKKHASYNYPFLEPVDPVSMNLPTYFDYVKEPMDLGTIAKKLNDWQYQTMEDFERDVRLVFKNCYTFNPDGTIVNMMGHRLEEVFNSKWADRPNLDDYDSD
The experiment is described as follows: histone peptide array probed with recombinant GST-bromodomain, signal normalised to myc peptide control.

Experiment [2] concerns the target T2, Bdf1 bromodomain 1 (GST-tagged, WT) (Saccharomyces cerevisiae (strain ATCC …, UniProt P35817)).
T2 chain: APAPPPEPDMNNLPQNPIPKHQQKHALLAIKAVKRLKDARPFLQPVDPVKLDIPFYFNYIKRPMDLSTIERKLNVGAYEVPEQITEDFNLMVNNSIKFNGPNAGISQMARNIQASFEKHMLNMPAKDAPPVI
The experiment is described as above.

Non-standard residues stand in square brackets, D forms with d. Primed or numbered codes have the meaning given here. No end group written: not given here. Me2s″ = symmetric dimethylarginine (Rme2s); Arg(Me2a) = CN(C)C(=N)NCCC[C@H](N)C(=O)O; Arg(Me2s) = CN=C(NC)NCCC[C@H](N)C(=O)O; pT = C[C@@H](OP(=O)(O)O)[C@H](N)C(=O)O; Lys(Me2) = CN(C)CCCC[C@H](N)C(=O)O; pS = N[C@@H](COP(=O)(O)O)C(=O)O

As to ARTKQTARKSTGGKAPRKQ (A R T K Q T A R K pS pT G G K A P R K Q), the binding score in experiment [1] is 0; in experiment [2], 0.00681.
PRKQLATKAA[Arg(Me2a)]KSAPATGG [H3 16-35]: the binding score in experiment [1] and in experiment [2] was 0 in each case.
For the molecule PDPAKSAPAPKKG[pS]KKAVT, the binding score in experiment [1] is 0; in experiment [2] it was 0.00699.
The like results for [pS]GRGK(Ac)QGGK(Ac)ARAK(Ac)AKSRSS were, in that order, 0.388 and 0.0949.
The like results for ARTKQTARKSTGGKAPRKQ (A Rme2a T Kme3 Q T A Rme2s Kme2 S T G G K A P R K Q) were, in that order, 0 and 0.00269.
In the case of AR(Me2s″)TK(Me)QTARK(Me)STGGKAPRKQ, the binding score was 0.0105 in experiment [1] and 0 in experiment [2].
In the same order, the values of A[Arg(Me2a)]TK(Ac)QTA[Arg(Me2s)][Lys(Me2)]STGGKAPRKQ are 0.00482 and 0.0188.
With PDPAK(Ac)SAPAPKK(Ac)GSK(Ac)KAVT, the results for the binding score in experiment [1] and in experiment [2] were 0.329 and 0, respectively.
In the same order, the values of ARTK(Me)QTARKSTGGKAPRKQ are 0.00305 and 0.
For A[Arg(Me2a)][pT]K(Ac)QTARKSTGGKAPRKQ, the binding score in experiment [1] is 0.0394; in experiment [2], 0.0346.
Turning to SGRGK(Ac)QGGKARAK(Ac)AKSRSS, the binding score came out at 0.127 in experiment [1] and 0.0151 in experiment [2].
In the same order, the values of ARTKQTARKSTGGKAPRKQ (A Rme2s T Kme2 Q T A Rme2a Kme2 S T G G K A P R K Q) are 0 and 0.
The like results for ARTKQTARKSTGGKAPRKQ (A R T K Q T A R Kme2 S pT G G K A P R K Q) were, in that order, 0 and 0.
The like results for ARTKQTARKSTGGKAPRKQ (A Rme2a T Kac Q T A Rme2s Kme1 S T G G K A P R K Q) were, in that order, 0 and 0.
For [pS]GRGKQGGK(Ac)ARAK(Ac)AKSRSS, the binding score came out at 0.186 in experiment [1] and 0.0477 in experiment [2].
The like results for PDPAK(Ac)SAPAPKKGSK(Ac)KAVT were, in that order, 0 and 0.00143.
In the same order, the values of A[Arg(Me2a)]TK(Me)QTARKSTGGKAPRKQ are 0 and 0.
As for AR[pT]KQTARKSTGGKAPRKQ, the binding score amounted to 0.0062 in experiment [1] and 0 in experiment [2].
In the same order, the values of [pS]GRGK(Ac)QGGK(Ac)ARAKAKSRSS are 0.162 and 0.00663.

These data come from publication PMC5261807 (2017).
